# In patent publication US20210188951A1 (Merck Sharp & Dohme, published 2021):
# B1: palivizumab (SYNAGIS) (antibody, V domains shown)
# VH: QVTLRESGPALVKPTQTLTLTCTFSGFSLSTSGMSVGWIRQPPGKALEWLADIWWDDKKDYNPSLKSRLTISKDTSKNQVVLKVTNMDPADTATYYCARSMITNWYFDVWGAGTTVTVSS
# VL: DIQMTQSPSTLSASVGDRVTITCKCQLSVGYMHWYQQKPGKAPKLLIYDTSKLASGVPSRFSGSGSGTEFTLTISSLQPDDFATYYCFQGSGYPFTFGGGTKLEIK
# B2: RB1+YTE (human IgG1 with M252Y/S254T/T256E in the Fc) (antibody, V domains shown)
# VH: EVQLVESGGGLVRPGRSLRLSCTVSGFSFDDSAMSWVRQAPGKGLEWISFIKSKTYGGTKEYAASVKGRFTISRDDSKNIAYLQMNSLKTEDTAVYYCTRGAPYGGNSDYYYGLDVWGQGTTVTVSS
# VL: DIQMTQSPSSLSASVGDRVTITCRTSQDVRGALAWYQQKPGKAPKLLIFDASSLETGVPSRFSGSGSGTVFTLTISSLQPEDFAAYYCQQFLDFPFTFGQGTRLEIKR
# B3: RB1 (recombinant human IgG1, CHO-3E7 expressed) (antibody, V domains shown)
# VH: B2 VH
# VL: B2 VL
# notes: Variable domains converted to human IgG1 and expressed in CHO-3E7 cells; also called RB1 MAb; anti-human RSV F protein antibody RB1
# B4: D25 antibody (antibody, V domains shown)
# VH: QVQLVQSGAEVKKPGSSVMVSCQASGGPLRNYIINWLRQAPGQGPEWMGGIIPVLGTVHYAPKFQGRVTITADESTDTAYIHLISLRSEDTAMYYCATETALVVSTTYLPHYFDNWGQGTLVTVSS
# VL: DIQMTQSPSSLSAAVGDRVTITCQASQDIVNYLNWYQQKPGKAPKLLIYVASNLETGVPSRFSGSGSGTDFSLTISSLQPEDVATYYCQQYDNLPLTFGGGTKVEIKR
# What was measured:
# [1] = biological target: human RSV pre-fusion F protein (human respiratory syncytial virus (hRSV), UniProt P03420 26-513); experiment: ELISA on coated pre-F
# [2] = biological target: human RSV post-fusion F protein LZF21 (human respiratory syncytial virus (hRSV), UniProt P03420 26-524); experiment: ELISA on coated post-F
# [3] = biological target: T1, human RSV A F protein (ELISA of Example 6; pre- or post-fusion form not stated) (human RSV A, UniProt P03420 26-513); experiment: ELISA on coated F protein; lower end of the range
# [4] = biological target: T1, human RSV A F protein (ELISA of Example …); experiment: ELISA, RSV A F protein on the plate, antibody titrated, OD450
# [5] = biological target: T2, human RSV pre-fusion F protein (human respiratory syncytial virus (hRSV), UniProt P03420 26-513); experiment: SPR (Biacore)
# T2 construct: also called hRSV pre-F
# [6] = biological target: T3, human RSV post-fusion F protein LZF21 (human respiratory syncytial virus (hRSV), UniProt P03420 26-524); experiment: SPR (Biacore)
# T3 construct: extracellular domain; Trimeric; also called LZF21-biotin
# [7] = biological target: T2, human RSV pre-fusion F protein; experiment: SPR, Biacore T200, 1:1 Langmuir fit
# Source text: (§1) Background subtraction binding sensorgrams were used for analyzing the rate constant of association (kₐ) and dissociation (kd), and the equilibrium dissociation constant KD. The resulting data sets were fitted with a 1:1 Langmuir Binding Model using the Biacore T200 evaluation software (version 2.0).
# [8] = biological target: T3, human RSV post-fusion F protein LZF21; experiment: SPR, Biacore T200, 1:1 Langmuir fit
# Source text: as §1
# [9] = biological target: T2, human RSV pre-fusion F protein; experiment: ELISA on coated pre-F
# [10] = biological target: T4, RSV-F protein R429A mutant, expressed in human cells (UniProt P03420 26-574); experiment: shotgun mutagenesis alanine scan, antibody binding to F mutant expressed in human cells
# T4 construct: whole, on cells
# [11] = biological target: T5, RSV-F protein I432A mutant, expressed in human cells (UniProt P03420 26-574); experiment: as above
# T5 construct: whole, on cells
# [12] = biological target: T3, human RSV post-fusion F protein LZF21; experiment: ELISA on coated post-F
Binder,EC50 [1] [ng/mL],Kd [5] [nM],koff [5] [s⁻¹],kon [5] [M⁻¹ s⁻¹],Kd [6] [nM],koff [6] [s⁻¹],kon [6] [M⁻¹ s⁻¹],also measured
B1,17.4,–,–,–,–,–,–,EC50 [2]: 10.5 ng/mL
B2,–,0.071,0.00023,3.2e+06,0.48,0.0007,1.4e+06,EC50 [3]: 1.97 to 2.46 ng/mL; EC50 [4]: 2.24 ng/mL
B3,–,0.031,0.00014,4.4e+06,0.41,0.0009,2.2e+06,Kd [7]: 0.031 nM; koff [7]: 0.00014 s⁻¹; kon [7]: 4.4e+06 M⁻¹ s⁻¹; Kd [8]: 0.41 nM; koff [8]: 0.0009 s⁻¹; kon [8]: 2.2e+06 M⁻¹ s⁻¹; EC50 [9]: 7.05 ng/mL; Binding Reactivity (% WT) [10]: 33.1 % WT; Binding Reactivity (% WT) [11]: 36.7 % WT; EC50 [12]: 14.1 ng/mL
B4,8.94,–,–,–,–,–,–,–
